The assay deals with T1, insoluble fibrin (fibrin plate, fibrin clot or tissue fibrin; species not stated for the experiment) (Homo sapiens (Human), UniProt P02671 36-630; P02675 45-491; P02679 27-433, Insoluble polymer of (alpha-beta-gamma)2 fibrin monomers, disulfide-bridged and possibly cross-linked by factor XIII. The letters give one copy of each chain only.).
T1 sequence (alpha): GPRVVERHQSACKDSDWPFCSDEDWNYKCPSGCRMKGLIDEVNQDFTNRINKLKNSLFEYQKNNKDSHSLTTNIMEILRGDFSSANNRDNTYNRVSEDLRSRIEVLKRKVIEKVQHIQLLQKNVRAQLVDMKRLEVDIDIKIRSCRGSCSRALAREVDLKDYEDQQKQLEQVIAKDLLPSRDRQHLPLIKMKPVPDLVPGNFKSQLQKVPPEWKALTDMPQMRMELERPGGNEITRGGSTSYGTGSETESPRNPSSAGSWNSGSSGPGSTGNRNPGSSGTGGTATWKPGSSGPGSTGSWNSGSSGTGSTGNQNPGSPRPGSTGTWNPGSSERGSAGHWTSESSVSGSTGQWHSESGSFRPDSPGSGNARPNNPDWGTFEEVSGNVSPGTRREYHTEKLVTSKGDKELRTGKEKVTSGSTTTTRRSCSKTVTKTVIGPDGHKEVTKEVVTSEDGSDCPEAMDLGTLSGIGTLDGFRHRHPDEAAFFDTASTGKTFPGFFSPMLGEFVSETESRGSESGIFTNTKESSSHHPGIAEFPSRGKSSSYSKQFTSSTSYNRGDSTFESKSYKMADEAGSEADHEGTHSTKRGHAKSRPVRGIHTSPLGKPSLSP
T1 sequence (beta): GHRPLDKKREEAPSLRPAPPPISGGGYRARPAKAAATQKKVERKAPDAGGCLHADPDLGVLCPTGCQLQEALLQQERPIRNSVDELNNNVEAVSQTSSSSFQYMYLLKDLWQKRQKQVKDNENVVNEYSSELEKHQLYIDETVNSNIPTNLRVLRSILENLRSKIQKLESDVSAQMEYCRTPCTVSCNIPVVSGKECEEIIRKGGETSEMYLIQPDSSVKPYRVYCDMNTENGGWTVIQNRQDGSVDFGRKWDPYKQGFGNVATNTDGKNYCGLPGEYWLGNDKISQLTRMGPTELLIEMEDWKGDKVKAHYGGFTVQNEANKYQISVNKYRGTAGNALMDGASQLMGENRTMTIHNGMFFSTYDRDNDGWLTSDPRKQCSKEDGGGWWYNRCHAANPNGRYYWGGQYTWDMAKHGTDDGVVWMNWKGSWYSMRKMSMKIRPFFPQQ
T1 sequence (gamma): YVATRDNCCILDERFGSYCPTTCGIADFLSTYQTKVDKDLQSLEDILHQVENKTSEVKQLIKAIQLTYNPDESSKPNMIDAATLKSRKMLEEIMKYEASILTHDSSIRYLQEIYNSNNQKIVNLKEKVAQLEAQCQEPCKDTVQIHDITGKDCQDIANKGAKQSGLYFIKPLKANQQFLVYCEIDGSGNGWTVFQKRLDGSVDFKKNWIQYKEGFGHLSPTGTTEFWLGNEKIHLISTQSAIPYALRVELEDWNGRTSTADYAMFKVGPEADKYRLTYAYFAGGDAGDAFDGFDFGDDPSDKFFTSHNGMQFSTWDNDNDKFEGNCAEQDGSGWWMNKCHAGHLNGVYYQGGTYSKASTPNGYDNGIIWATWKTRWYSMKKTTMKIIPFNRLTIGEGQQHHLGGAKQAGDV
The experiment in a line: ELISA, fibrin plate against fibrinogen plate, antibody at 10 µg/mL, absorbance at 492 nm. On the procedure: Each of the antibody solutions (100 μL each) at 10 μg/mL was added to the fibrin plate and the fibrinogen plate, and allowed to stand at room temperature for 1 hour. After washing with TBS-T, Bethyl Anti-Human IgG-HRP (×1000 dilution) or Bethyl Anti-Mouse IgG-HRP (×10000 dilution) was added as a secondary antibody. Then, after washing with TBS-T, colorimetry was conducted with OPD for 10 minutes, and measurement was conducted at an absorption wavelength of 492 nm.

B1: Fib-0355 antibody (monoclonal antibody produced by hybridoma Fib-0355) (antibody, V domains shown)
VH: GPELKKPGETVKISCKASGYTFTNYGMNWVKQAPGKGLKWMGWINTNTGEPTYAEEFKGRFAFSLETSASTAYLQINNLKNEDTATYFCARLLDYWGQGTTLTVSS
VL: PSSLAVSAGEKVTMSCKSSQSVLYSSNQKNYLAWYQQKPGQSPKLLIYWASTRESGVPDRFTGSGSGTDFTLTISSVQAEDLAVYYCQQYLSSYTFGG
notes: Mouse hybridoma monoclonal antibody, detected with anti-mouse IgG-HRP; also called anti-β chain antibody
On to B1, for which the “ratio of the affinity for insoluble fibrin to the affinity for fibrinogen (absorbance at 492 nm)” value stood at 13 times.

These data come from patent publication US20160011217A1 (NATIONAL CANCER CENTER, published 2016).
